B3: EhVps24 (natural protein)
chain: MGNLNSQTVDNSFQQKQFELKVNRDNLSKREKEYQNNIEKLNKEARKYCRKGDKENAKRQIKLRTLYETNLKEIRCYLDQTETILIQLEASKRNYDVAKLMDESNKEIKKILNKIPKNFIEEIINTKKENSDKLKEIDSLYEQLNDIDNENQIEQELNKLALEVMSEKEGGIEAVKNEVIAESLPEVNSQSDMLISKQNIVIETF
notes: EhVps24, Entamoeba histolytica ESCRT-III protein, endogenous in trophozoites; also called EhVps24 protein; source: endogenous, E. histolytica trophozoites (lysate for immunoprecipitation; fixed, permeabilized cells for flow cytometry)

Tests used:
[1] = target: B3; test: flow cytometry on cells; PFA-fixed, Triton X-100 permeabilized trophozoites after 0, 5 and 30 min of erythrophagocytosis, stained with couples of primary antibodies and secondary antibodies with distinct fluorochromes; percent association of each couple; details: partners not purified
[2] = target: T1, EhVps32 (Entamoeba histolytica (endogenous in …, UniProt C4M1A5 1-204)); test: as above; details: partners not purified
T1 construct: EhVps32, Entamoeba histolytica ESCRT-III protein (ortholog of yeast Snf7/Vps32 and human CHMP4), endogenous in trophozoites; Precipitated and detected with the mouse polyclonal α-rEhVps32 antibody; also called EhVps32 protein; source: endogenous, E. histolytica trophozoites (lysate for immunoprecipitation; fixed, permeabilized cells for flow cytometry)
T1 sequence: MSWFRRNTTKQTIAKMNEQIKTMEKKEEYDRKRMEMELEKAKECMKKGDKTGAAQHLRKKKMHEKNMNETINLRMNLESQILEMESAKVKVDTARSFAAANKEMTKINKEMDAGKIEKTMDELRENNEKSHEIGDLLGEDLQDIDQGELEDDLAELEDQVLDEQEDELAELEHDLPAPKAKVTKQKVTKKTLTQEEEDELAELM

B1: EhVps2 (natural protein)
chain: MSRLFHKKTPQEIVREQKLNISKSIREITRESKRLEREEVRLTNEIRKMARLGRTNTVKVMAADLVKTKKQIDKLQVVIAQLNSTKMKLTEMSSMVAVTEAMNGVTNAMRKVNEATKLPAMQKVMNDFEKQNAELGIKNTMVSDMVNEGYEGDDIEEETELEVDKVLTEIGLDVENGLKPVPETRQRNTRLKERRQVQMEGGVKTRNEGNEQPEDLDTPGSRVPKAFNEGEDDEDEDDIVSRIANL
notes: EhVps2, Entamoeba histolytica ESCRT-III protein, endogenous in trophozoites; also called EhVps2 protein; source: endogenous, E. histolytica trophozoites (lysate for immunoprecipitation; fixed, permeabilized cells for flow cytometry)
[1]
  percent interaction, 30 min of erythrophagocytosis: 10%

B2: EhVps20 (natural protein)
chain: MLNRFIGKNEEPSIDETHAILESRVTDLDQKIVDLDRQIRQNIEMSHKTTGAESQRYKQKALMLLKQKKQHEQHRDITERHQMNLENVQFQVDQMKDYKKVYDAMAASNRQMKLISRQFDINSIEDVQDSMMNFAEDQQEFGDILSQDITNMDLNELDDELAELGDSMFEGDIQIPESDGFGSVPITNEPFRQKEESQPDDKKFAI
notes: EhVps20, Entamoeba histolytica ESCRT-III protein, predicted 206 amino acids, endogenous in trophozoites; also called EhVps20 protein; source: endogenous, E. histolytica trophozoites (lysate for immunoprecipitation; fixed, permeabilized cells for flow cytometry)
[2]
  percent interaction, 30 min of erythrophagocytosis: ~47%

## B3
[2]
  percent interaction, 30 min of erythrophagocytosis: ~47%
